9 molecules from patent US20230272045A1 (MONASH UNIVERSITY, published 2023) can be followed below.

Assay [1] has as its target T1, human plasma fibronectin (human, UniProt P02751-8 32-2296, limits assumed).
T1 construct: Coated on ELISA plates at 100 nM; also called Fn
Put plainly: ELISA; ECM protein coated at 100 nM, soluble protein 0-100 nM, one-site fit. Here is the method:
(§1) ELISA plates (Medium binding, Greiner bio-one) were coated with 100 nM of ECM proteins in 50 μl of PBS for 1 h at 37° C.; human plasma fibronectin (Sigma), human vitronectin (Peprotech), human tenascin C (R&D Systems), human fibrinogen (Enzyme Research Laboratories). Then, wells were washed with PBS-T (PBS with 0.05% Tween-20) and blocked with 300 l PBS-T containing 1% BSA for 1 h at room temperature. ECM and control wells (no ECM and blocked with BSA) were further incubated 1 h at room temperature with solutions of murine PDGF-BB (Peprotech), IL-1Ra (R&D Systems), or PIGF₁₂₃₋₁₄₁-fused proteins at concentrations ranging from 0 to 100 nM (50 μl in PBS-T containing 0.1% BSA; PROKEEP tubes, Watson bio lab). Then, wells were washed 3 times with PBS-T and bound PDGF-BB and IL-1Ra variants were detected using biotinylated antibodies in PBS-T containing 0.1% BSA. Antibodies used were from PDGF-BB DuoSet ELISA (R&D Systems, DY8464) for PDGF-BB and IL-1ra/IL-1F3 DuoSet ELISA (R&D Systems, DY480) for IL-1Ra. To calculate the dissociation constants (KD) specific-binding values were fitted with a one site specific binding model using A₄₅₀ nm=Bmax*[growth factors or IL-1Ra variants]/(KD+[growth factors or IL-1Ra variants]).
Background: An ELISA detects its analyte on a solid surface through an enzyme-linked reagent.

In assay [2] the target is T2, human tenascin C (human, UniProt P24821 23-2201, limits assumed).
T2 construct: Coated on ELISA plates at 100 nM; also called TnC; Tnc
The assay is described as above. As for the experimental part: as §1

In assay [3] the target is T3, human vitronectin (human, UniProt P04004 20-478).
T3 construct: Coated on ELISA plates at 100 nM; also called Vn
The assay is described as above. Here is the method: as §1

The target of assay [4] is T4, human fibrinogen (human, UniProt P02671 20-644; P02675 31-491; P02679 27-437, limits assumed).
T4 construct: Coated on ELISA plates at 100 nM; also called Fg
T4 sequence (looked up) 1: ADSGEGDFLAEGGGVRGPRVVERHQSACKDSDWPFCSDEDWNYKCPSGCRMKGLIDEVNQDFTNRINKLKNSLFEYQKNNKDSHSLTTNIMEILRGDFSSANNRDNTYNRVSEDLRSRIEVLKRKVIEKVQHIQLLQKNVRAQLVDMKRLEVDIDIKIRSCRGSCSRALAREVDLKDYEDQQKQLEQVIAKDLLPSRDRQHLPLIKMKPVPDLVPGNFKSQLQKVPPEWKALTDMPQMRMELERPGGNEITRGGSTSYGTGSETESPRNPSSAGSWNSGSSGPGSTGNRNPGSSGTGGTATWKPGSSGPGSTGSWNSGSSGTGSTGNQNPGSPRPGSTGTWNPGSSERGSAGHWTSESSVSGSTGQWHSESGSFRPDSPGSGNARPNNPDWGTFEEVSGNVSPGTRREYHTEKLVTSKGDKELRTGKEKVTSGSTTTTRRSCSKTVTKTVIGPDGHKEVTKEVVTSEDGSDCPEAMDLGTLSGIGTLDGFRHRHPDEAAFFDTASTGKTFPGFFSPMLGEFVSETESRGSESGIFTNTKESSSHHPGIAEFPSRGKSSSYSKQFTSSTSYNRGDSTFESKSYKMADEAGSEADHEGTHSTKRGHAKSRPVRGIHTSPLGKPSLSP
T4 sequence (looked up) 2: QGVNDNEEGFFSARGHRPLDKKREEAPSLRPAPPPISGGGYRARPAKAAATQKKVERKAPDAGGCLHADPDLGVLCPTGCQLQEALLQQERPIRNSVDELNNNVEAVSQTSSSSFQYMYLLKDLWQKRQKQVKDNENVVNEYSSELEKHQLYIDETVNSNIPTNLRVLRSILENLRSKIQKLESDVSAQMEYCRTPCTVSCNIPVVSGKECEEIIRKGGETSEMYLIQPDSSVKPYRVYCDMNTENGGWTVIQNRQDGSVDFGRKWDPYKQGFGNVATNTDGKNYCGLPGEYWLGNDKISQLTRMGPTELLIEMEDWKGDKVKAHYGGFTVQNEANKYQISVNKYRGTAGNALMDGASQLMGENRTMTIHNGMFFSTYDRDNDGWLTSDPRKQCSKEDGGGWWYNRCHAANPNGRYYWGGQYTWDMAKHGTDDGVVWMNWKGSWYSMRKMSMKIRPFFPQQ
T4 sequence (looked up) 3: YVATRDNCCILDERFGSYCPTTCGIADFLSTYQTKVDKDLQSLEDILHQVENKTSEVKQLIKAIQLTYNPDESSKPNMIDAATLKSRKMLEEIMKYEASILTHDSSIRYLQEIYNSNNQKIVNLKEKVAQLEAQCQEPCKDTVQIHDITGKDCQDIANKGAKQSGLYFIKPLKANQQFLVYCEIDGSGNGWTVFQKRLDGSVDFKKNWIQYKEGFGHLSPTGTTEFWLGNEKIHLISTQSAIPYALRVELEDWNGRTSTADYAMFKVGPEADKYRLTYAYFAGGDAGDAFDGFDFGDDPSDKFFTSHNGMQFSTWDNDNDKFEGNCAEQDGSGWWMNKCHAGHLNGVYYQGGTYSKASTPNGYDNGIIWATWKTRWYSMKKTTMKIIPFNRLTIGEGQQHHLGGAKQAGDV
Described as above. Here is the method: as §1

Assay [5] deals with T1, human plasma fibronectin. The assay can be described thus: ELISA of fragments.
Assay [6] concerns the target T3, human vitronectin. The assay can be described thus: ELISA of fragments.
Assay [7] has as its target T4, human fibrinogen. Put plainly: ELISA of fragments.
For assay [8], the target named is T1, human plasma fibronectin. Put plainly: ELISA, one site specific binding fit.
Assay [9] deals with T3, human vitronectin. Put plainly: ELISA, one site specific binding fit.
Assay [10] addresses T2, human tenascin C. The assay can be described thus: ELISA, one site specific binding fit.
Assay [11] concerns the target T4, human fibrinogen. Put plainly: ELISA, one site specific binding fit.

By Kd is commonly meant the free concentration of one partner at which half of the binding sites on the other are occupied at equilibrium, for simple one-to-one binding.

Where no end group is shown, it is not given here.

T1 sequence (P02751 other isoform, or with tags, fused parts or gaps limits assumed): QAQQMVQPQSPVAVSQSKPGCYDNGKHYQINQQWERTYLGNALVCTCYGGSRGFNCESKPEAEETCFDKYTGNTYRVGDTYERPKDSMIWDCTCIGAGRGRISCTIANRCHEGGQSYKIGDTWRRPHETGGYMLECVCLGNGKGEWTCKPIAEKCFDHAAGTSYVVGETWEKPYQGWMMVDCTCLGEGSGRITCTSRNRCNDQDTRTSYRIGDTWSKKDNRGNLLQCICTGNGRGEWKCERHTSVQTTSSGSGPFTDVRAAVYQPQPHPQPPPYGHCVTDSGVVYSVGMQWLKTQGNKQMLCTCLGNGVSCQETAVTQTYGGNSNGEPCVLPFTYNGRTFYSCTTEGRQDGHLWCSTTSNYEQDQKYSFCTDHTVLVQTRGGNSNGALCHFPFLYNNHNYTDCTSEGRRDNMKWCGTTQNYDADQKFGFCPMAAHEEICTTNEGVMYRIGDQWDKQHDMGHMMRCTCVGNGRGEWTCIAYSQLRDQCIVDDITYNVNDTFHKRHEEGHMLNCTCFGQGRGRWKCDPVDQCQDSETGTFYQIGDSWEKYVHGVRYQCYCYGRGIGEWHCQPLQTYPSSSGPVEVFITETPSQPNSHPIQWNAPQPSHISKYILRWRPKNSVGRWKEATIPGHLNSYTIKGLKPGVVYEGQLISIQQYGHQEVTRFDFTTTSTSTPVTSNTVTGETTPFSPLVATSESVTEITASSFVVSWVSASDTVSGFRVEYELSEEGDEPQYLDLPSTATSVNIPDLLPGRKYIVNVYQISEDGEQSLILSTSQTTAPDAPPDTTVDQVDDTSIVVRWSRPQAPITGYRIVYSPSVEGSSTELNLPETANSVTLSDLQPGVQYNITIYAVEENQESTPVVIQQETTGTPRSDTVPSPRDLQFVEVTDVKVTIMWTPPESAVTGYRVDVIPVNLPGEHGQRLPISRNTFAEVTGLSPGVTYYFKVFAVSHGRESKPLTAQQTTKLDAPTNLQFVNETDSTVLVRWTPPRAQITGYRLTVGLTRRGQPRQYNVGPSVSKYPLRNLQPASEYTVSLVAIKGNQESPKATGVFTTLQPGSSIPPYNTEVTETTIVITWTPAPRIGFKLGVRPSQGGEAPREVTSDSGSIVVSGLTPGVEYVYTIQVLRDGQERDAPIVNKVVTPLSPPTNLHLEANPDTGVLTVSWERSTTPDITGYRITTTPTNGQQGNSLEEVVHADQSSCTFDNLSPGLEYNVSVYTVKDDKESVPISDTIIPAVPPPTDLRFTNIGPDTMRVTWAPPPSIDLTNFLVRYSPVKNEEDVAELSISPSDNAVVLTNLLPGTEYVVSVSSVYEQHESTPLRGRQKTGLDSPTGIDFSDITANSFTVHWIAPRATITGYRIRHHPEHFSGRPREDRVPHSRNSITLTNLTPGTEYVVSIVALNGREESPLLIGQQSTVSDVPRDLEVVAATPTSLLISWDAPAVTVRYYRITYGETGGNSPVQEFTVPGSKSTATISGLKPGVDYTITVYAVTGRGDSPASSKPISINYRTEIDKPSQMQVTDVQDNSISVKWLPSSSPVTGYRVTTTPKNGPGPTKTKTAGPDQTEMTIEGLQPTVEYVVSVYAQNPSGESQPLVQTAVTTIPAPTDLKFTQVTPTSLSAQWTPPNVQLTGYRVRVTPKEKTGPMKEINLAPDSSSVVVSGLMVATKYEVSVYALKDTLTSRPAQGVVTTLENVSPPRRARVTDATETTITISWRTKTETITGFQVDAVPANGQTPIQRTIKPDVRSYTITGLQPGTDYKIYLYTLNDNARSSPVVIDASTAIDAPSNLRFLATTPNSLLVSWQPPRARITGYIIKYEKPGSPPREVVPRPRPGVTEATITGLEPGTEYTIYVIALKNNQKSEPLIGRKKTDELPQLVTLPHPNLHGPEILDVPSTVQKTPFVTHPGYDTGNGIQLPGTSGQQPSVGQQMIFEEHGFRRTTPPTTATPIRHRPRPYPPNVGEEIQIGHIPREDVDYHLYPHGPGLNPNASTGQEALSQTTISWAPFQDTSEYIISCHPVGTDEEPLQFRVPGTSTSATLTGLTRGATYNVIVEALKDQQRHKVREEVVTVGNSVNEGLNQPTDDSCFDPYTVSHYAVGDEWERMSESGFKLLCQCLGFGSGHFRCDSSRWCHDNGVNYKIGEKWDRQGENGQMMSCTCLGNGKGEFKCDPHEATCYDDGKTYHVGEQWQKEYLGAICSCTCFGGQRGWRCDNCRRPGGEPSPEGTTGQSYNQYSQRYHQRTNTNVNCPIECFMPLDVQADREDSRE
T2 sequence (P24821 23-2201 limits assumed): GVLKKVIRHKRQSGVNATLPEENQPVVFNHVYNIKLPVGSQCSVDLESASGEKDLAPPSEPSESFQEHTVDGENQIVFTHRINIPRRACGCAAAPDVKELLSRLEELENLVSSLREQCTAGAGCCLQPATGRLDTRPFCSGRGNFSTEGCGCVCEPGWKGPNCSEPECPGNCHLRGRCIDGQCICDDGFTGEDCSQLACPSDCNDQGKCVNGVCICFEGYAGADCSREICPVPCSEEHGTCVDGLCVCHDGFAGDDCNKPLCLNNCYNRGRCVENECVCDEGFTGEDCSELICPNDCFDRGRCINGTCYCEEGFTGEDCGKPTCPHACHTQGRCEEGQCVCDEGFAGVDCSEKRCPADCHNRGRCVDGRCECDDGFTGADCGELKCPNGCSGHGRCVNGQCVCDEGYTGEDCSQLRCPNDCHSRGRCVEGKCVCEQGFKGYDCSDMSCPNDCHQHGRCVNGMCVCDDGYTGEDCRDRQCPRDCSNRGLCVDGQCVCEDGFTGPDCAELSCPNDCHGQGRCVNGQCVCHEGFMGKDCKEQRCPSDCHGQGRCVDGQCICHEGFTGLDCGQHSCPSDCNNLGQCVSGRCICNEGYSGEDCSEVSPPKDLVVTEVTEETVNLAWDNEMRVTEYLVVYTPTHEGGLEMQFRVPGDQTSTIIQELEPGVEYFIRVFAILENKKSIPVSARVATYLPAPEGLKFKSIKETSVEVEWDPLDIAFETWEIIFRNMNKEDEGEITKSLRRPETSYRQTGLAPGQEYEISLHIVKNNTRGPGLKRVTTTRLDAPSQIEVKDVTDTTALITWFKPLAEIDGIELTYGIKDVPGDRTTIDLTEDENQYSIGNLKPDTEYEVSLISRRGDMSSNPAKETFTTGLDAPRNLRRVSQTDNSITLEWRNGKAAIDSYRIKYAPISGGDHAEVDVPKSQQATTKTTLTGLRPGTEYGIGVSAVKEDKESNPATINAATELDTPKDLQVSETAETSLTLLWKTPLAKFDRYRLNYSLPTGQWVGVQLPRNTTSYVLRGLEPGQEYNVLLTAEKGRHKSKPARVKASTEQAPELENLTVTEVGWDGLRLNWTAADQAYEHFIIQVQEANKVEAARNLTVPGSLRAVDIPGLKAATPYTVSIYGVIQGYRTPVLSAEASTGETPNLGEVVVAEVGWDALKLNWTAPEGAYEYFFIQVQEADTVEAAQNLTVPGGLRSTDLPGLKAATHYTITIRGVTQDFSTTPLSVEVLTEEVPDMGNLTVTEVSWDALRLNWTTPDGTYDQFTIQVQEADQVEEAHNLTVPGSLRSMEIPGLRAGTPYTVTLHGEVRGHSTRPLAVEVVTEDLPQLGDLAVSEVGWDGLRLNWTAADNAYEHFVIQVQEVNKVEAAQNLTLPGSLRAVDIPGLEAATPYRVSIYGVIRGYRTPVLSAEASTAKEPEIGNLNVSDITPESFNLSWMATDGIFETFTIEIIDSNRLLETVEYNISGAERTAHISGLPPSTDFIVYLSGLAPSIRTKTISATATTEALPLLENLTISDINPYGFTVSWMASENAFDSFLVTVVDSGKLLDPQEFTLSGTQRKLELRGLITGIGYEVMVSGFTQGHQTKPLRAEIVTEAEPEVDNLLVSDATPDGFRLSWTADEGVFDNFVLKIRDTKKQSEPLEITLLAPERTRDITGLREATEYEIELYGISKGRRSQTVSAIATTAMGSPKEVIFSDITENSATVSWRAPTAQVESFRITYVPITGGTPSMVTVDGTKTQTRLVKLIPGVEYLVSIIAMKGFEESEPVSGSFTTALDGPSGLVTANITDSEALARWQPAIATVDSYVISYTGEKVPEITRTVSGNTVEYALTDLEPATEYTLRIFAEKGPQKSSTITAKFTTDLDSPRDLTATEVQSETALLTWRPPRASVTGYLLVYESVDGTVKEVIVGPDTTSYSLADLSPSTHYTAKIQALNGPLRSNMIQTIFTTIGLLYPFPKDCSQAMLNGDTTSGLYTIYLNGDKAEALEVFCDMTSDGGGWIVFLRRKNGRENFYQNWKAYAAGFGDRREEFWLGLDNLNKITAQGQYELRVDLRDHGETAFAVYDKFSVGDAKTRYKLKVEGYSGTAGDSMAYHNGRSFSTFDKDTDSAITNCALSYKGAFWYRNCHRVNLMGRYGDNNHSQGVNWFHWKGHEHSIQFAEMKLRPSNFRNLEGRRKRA
T3 sequence (P04004 20-478 limits assumed): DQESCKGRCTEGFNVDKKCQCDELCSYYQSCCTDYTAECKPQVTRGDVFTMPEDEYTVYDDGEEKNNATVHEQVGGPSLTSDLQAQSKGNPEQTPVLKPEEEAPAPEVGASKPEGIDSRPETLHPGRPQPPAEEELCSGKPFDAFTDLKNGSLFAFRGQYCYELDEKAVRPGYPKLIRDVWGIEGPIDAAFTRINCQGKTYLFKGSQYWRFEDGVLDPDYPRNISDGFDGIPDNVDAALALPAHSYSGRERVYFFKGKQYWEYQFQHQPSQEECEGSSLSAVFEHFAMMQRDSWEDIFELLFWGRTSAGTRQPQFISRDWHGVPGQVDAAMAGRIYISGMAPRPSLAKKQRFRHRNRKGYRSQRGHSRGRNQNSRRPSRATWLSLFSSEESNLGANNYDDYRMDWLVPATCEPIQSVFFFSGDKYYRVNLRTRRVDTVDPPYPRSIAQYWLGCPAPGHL

B1: IL-1Ra/PIGF123-141 (other)
chain: MNHKVHHHHHHMRPSGKRPCKMQAFRIWDTNQKTFYLRNNQLIAGYLQGPNIKLEEKIDMVPIDLHSVFLGIHGGKLCLSCAKSGDDIKLQLEEVNITDLSKNKEEDKRFTFIRSEKGPTTSFESAACPGWFLCTTLEADRPVSLTNTPEEPLIVTKFYFQEDQRRRPKGRGKRRREKQRPTD
In the case of B1, the Kd in the assay with human plasma fibronectin [1] came out at 21.9 nM; in the assay with human tenascin C [2], 20.7 nM; with human vitronectin [3] it was 0.7 nM; in the assay with human fibrinogen [4] it was 43.5 nM.

B2: NRTN146-157 fragment (GST-fused construct from pGEX6P-1) (peptide)
chain: RRLRQRRRLRRE
modifications: also: fused to GST (vector linker letters not given here), letters not given here
notes: Cloned into pGEX6P-1, expressed in E. coli BL21, and purified on GSTrap and His-tag columns; not shown: GST encoded by the expression vector pGEX6P-1; a His tag is implied by purification on a His-tag HP column
For B2, the binding result in the assay with human plasma fibronectin [5], with human vitronectin [6] and in the assay with human fibrinogen [7] was “binds” each time.

B3: neurturin (NRTN) (ligand, UniProt Q99748 96-197, looked up)
chain: ARLGARPCGLRELEVRVSELGLGYASDETVLFRYCAGACEAAARVYDLGLRRLRQRRRLRRERVRAQPCCRPTAYEDEVSFLDAHSRYHTVHELSARECACV
Regarding B3, the results for the Kd with human plasma fibronectin [8] and in the assay with human vitronectin [9] were 50.1 nM and 27.6 nM, respectively.

B4: Placenta growth factor-2 (PIGF-2) (ligand)
chain: LPAVPPQQWALSAGNGSSEVEVVPFQEVWGRSYCRALERLVDVVSEYPSEVEHMFSPSCVSLLRCTGCCGDENLHCVPVETANVTMQLLKIRSGDRPSYVELTFSQHVRCECRPLREKMKPERRRPKGRGKRRREKQRPTDCHLCGDAVPRR
For B4, the Kd was 11.6 nM in the assay with human plasma fibronectin [8], 16.6 nM in the assay with human tenascin C [10], 13.9 nM in the assay with human vitronectin [9] and 9.9 nM with human fibrinogen [11].

B5: PDGF-BB/PIGF123-141 (other)
chain: SLGSLAAAEPAVIAECKTRTEVFQISRNLIDRTNANFLVWPPCVEVQRCSGCCNNRNVQCRASQVQMRPVQVRKIEIVRKKPIFKKATVTLEDHLACKCETIVTPRPVTRRRPKGRGKRRREKQRPTD
notes: not shown: 6x histidine tag at the N-terminus
As for B5, the Kd was 17.7 nM with human plasma fibronectin [1], 25 nM in the assay with human tenascin C [2], 1.4 nM with human vitronectin [3] and 16.7 nM with human fibrinogen [4].

B6: IL-1Ra (murine wild-type interleukin-1 receptor antagonist) (ligand)
chain: MRPSGKRPCKMQAFRIWDTNQKTFYLRNNQLIAGYLQGPNIKLEEKIDMVPIDLHSVFLGIHGGKLCLSCAKSGDDIKLQLEEVNITDLSKNKEEDKRFTFIRSEKGPTTSFESAACPGWFLCTTLEADRPVSLTNTPEEPLIVTKFYFQEDQ
notes: also called wild-type IL-1Ra; IL-1 receptor antagonist
For the molecule B6, the Kd with human plasma fibronectin [1] was determined as 129 nM; in the assay with human tenascin C [2], 113 nM; in the assay with human vitronectin [3], 73.2 nM; in the assay with human fibrinogen [4], 663 nM.

B7: PDGF-BB (murine wild-type platelet-derived growth factor-BB) (ligand, UniProt P31240 82-190, looked up)
chain: SLGSLAAAEPAVIAECKTRTEVFQISRNLIDRTNANFLVWPPCVEVQRCSGCCNNRNVQCRASQVQMRPVQVRKIEIVRKKPIFKKATVTLEDHLACKCETIVTPRPVT
notes: also called wild-type PDGF-BB
Regarding B7, the Kd in the assay with human plasma fibronectin [1] was determined as 67.5 nM; in the assay with human tenascin C [2], 94.3 nM; with human vitronectin [3] it was 32.1 nM; in the assay with human fibrinogen [4], 206 nM.

B8: amphiregulin (AREG) (ligand, UniProt P15514 101-198, looked up)
chain: SVRVEQVVKPPQNKTESENTSDKPKRKKKGGKNGKNRRNRKKKNPCNAEFQNFCIHGECKYIEHLEAVTCKCQQEYFGERCGEKSMKTHSMIDSSLSK
For B8, the equilibrium dissociation constant (Kd) with human plasma fibronectin [8] was determined as 8.6 nM; with human tenascin C [10], 36.8 nM; with human vitronectin [9], 13.8 nM; in the assay with human fibrinogen [11], 8.2 nM.

B9: AREG126-138 fragment (GST-fused construct from pGEX6P-1) (peptide)
chain: RKKKGGKNGKNRR
modifications: also: fused to GST (vector linker letters not given here), letters not given here
notes: as for B2
Regarding B9, the binding result with human plasma fibronectin [5], with human vitronectin [6] and with human fibrinogen [7] was “binds” in each case.
